Data from patent US20050058658A1, “Compositions and methods for immunotherapy of human immunodeficiency virus (HIV)” (priority 2003, published 2005).

Assays:
[1] = tested on: freshly isolated dendritic cells (CD11c+ splenocytes); assay: Dendritic cell (DC) assay: IL-12 release; assay type: cell-based, BALB/c mice; conditions: tested for synergism and inhibition
From the text: In a preferred embodiment, dendritic cell (DC) assay is used to follow interleukin-12 (IL-12) release from freshly isolated dendritic cells as an index of DC activation (see section 13). […] Briefly, by way of example but not limitation, a DC assay can be carried out as follows: freshly isolated dendritic cells (CD11c^+ splenocytes, e.g., isolated from the spleens of BALB/c mice within ten hours of assaying the activity) are suspended at a density of 0.5×10^6 cells per mL in cytokine supplemented culture media (GM-CSF, 1.0 ng/ml; IL-4, 1.0 ng/ml; IFNg, 3 ng/ml; anti mouse CD40; 0.5 mg/ml). […] Mouse IL-12 release from the dendritic cells (CD11c^+ splenocytes) is then measured using ELISA.
DCs were isolated from the spleens of male BALB/c mice 8-12 weeks of age (Harlan Bioproducts for Science, Indianapolis, Ind.), using the magnetic assisted cell separation (MACS) system purchased from Miltenyi Biotech. In summary: Spleens were aseptically removed from mice and placed into a petri dish containing 5 mL holding media (DMEM/F12 supplemented with 10% FCS and antibiotics). Each spleen was then injected with ˜0.5 mls collagenase D solution (1 mg/mL in 10 mM Hepes-NaOH, pH 7.4, 150 mM NaCl, 5 mM MgCl2, 1.8 mM CaCl2), placed into 5-10 mL collagenase D, cut into 5-6 pieces and incubated at 37° C. for 45-60 min. Collagenase-digested spleens were then processed with glass slides and passed through a 70 μm nylon mesh cell strainer. After the strainer was flushed with 40 mL culture media, cells were centrifuged (8 min @ 200×G), suspended in 1 mL PBS and subjected to red blood cell lysis by incubating the cell suspension for 5 min at room temperature in 10 mL lysis buffer (155 mM NH4Cl, 10 mM KHCO3, 0.1 mM EDTA), followed by dilution in PBS to 50 mL and centrifugation (8 min @ 200×g). The splenocytes were then suspended in 10 mL MACS buffer (PBS pH 7.2, supplemented with 2 mM EDTA and 0.5% BSA), passed through a 40 μm nylon mesh cell strainer which was flushed with 40 mL MACS buffer. A preliminary cell count was taken at this time, prior to centrifugation (8 min @ 200×G). The splenocytes were suspended at a density of 10^8 cells per 400 μL MACS buffer. Paramagnetic MicroBeads coated with anti-CD11c antibody were mixed with the splenocyte suspension (100 μL per 10^8 cells), incubated at +4° C. for 15 min, washed, suspended in 1.0 mL MACS buffer and passed through a MS+separation column placed within a strong magnetic field. CD11c^+ cells were retained in the column whereas CD11c^− cells were washed off the column as the flow-through cell fraction. CD11c^+ cells were then collected by removing the column out of the magnetic field and flushing the column twice with 1 mL of MACS buffer. CD11c^+ cells were washed once with culture media and suspended at a density of 0.5×10^6 cells per mL in cytokine supplemented culture media {DMEM/F12 supplemented with 10% FCS and gentamicin containing mouse GM-CSF (1 ng/mL), mouse IL-4 (1 ng/mL), mouse IFNγ (3 ng/mL) and anti mouse CD40 (0.5 mg/mL)}.
Mouse IL12 release from CD11c^+ splenocytes was measured using ELISA. Briefly, CD11c+ cell culture supernatants were sampled following an overnight incubation (usually 15-18 hrs). Media samples (100 μL) were added to ELISA plates coated with anti mouse IL12 (p70) capture antibody (R&D #MAB419; 250 ng in 100 μL per well) and incubated either at 37° C. or room temperature for 2 hrs. The ELISA plates were washed extensively with wash buffer after which 100 μL per well of detection antibody/detection reagent (biotinylated anti-mouse IL12; R&D #BAF419 at 50 ng/mL and streptavidin-HRP) was added. The ELISA plates were again incubated for 2 hours, washed and exposed to […] substrate solution (Pierce #34021) for 20 min. The substrate reaction was stopped by adding 100 μL/well 2M H2SO4. ELISA plates were read at 450 nm (corrected at 540 nm) and mIL12(p70) levels were calculated using an intra-ELISA standard curve (range: 2000-31.25 pg/mL).

Mouse sarcoma 180 cells = assay type: cell-based; conditions: for NK-CMC Activity: wide range of concentrations, in the presence and absence of IL-2 (125 U/ml)
Procedure: In one embodiment, a NK cell assay is used to assess ARP-induced cytotoxic activity of NK-like cells. Briefly, by way of example but not limitation, a NK cell assay can be carried out as follows: large granular lymphocytes (LGLs) are co-cultured with tumor cells at various ratios (effector to target ratio) for four days at 37° C., 5% CO2. […] The culture is terminated at the end of day 4 and vitally stained using a MTT cell viability quantification assay (see Mossman, T. J. Immunol. Methods 1983, 65:55; and Sigma Chemical MTT (M5655) product application note). Culture media is aspirated and the remaining cells are washed and replaced with DMEM/F12 plus FCS, containing MTT. The cells are further incubated for 4-5 hours at 37° C. Absorbance is measured with the aid of a plate reader. Decreased absorbance indicated a decrease in the number of viable cells per well (i.e., cytotoxicity). Absorbance is measured again after the MTT is solubilized by replacement of the medium with 2-propanol containing HCl, which gives a uniform color throughout the well. NK-inducing activity is calculated relative to negative (PBS/BSA) and positive (internal standard) controls.
Spleens (10-15 per experiment) were aseptically removed from male Balb/C mice 6-10 weeks of age. Splenocytes were “squeezed” out of spleens using 2 sterile glass microscope slides. Cells were collected in approximately 10 ml of DMEM/F12 containing 10% fetal calf serum (FCS) and gentamicin (50 μg/ml). Single cell suspensions were generated by passing collected cells through a 70 μm nylon mesh screen. After washing the cell pellet once with PBS (centrifuged at 675×g for 5 min), red blood cells were lysed by brief hypotonic shock (i.e. exposure to sterile distilled, deionized water, followed immediately with appropriate volumes of 10×PBS to return to isotonicity). Remaining cells were centrifuged and resuspended in DMEM/F12+10% FCS and transferred to 75 cm^2 flasks each containing 25 mls DMEM/F12+10% FCS (cells from 5 spleens per flask). The cells were incubated for 60 min. at 37° C. to selectively remove readily adherent cells (mainly fibroblasts and macrophages). After the incubation, the flasks were gently shaken and the non-adherent cells were removed, pelleted by centrifugation, and resuspended in DMEM/F12 (no supplements) (1.0 mL/10^8 cells). A 1.0 mL volume of these cell suspensions were carefully layered onto a 70%/60%/40% (2 mL/4 mL/4 mL) Percoll™ gradients in 15 ml centrifuge tubes and centrifuged for 30 min at 675×G. The cells which sediment at the 40/60 interface represent primarily large granular lymphocytes (LGLs), enriched with NK cells. These cells were carefully removed with a pasteur pipet, centrifuged, washed once with PBS and resuspended in approximately 5 mL DMEM/F12 supplemented with gentamicin (50 μg/mL) and 10% fetal calf serum. Cell counts and appropriate dilutions of LGL cells were made with these cells, as described below. For convenience this LGL cell preparation is interchangeably referred to as NK cells.
Mouse sarcoma 180 cells were seeded into 96 well plates at a density of 5×10^3 cells per well in 100 μl DMEM/F12, supplemented with 10% FCS and gentamicin (50 μg/mL). […] NK cells were added in 100 μL of supplemented DMEM/F12 at designated densities: 0 NK cells/well; 5×10^4 NK cells/well (1:10 target/effector ratio); 1.25×10^5 NK cells/well (1:25 target/effector ratio); 2.5×10^5 NK cells/well (1:50 target/effector ratio); and, 5×10^5 NK cells/well (1:100 target/effector ratio). (Note: routinely, only the 1:50 and 1:100 ratios were used for screening purposes. IL2 was added as a media supplement with final concentration of 125 U/mL.). Co-cultures were incubated for 4 days at 37° C., 5% CO2, and terminated and vitally stained using a MTT cell viability quantification assay (see Mossman, T. J. Immunol. Methods 65:55 (1983); and Sigma Chemical MTT (M5655) product application note). […]

Molecule | DC/mIL12 Release [1] | NK-inducing activity (Mouse sarcoma 180 cells) | maximal response, cytotoxicity (Mouse sarcoma 180 cells) | Enhancement of NK-CMC compared to BEX (Mouse sarcoma 180 cells; same conditions as BEX) | NK-CMC Activity (Mouse sarcoma 180 cells) | Effect on NK-CMC (footnotes of Table 16) (Mouse sarcoma 180 cells) | basal NK-CMC activity (Mouse sarcoma 180 cells; IL2 alone (125 U/ml), highest NK:S180 ratio (100_NK))
IFNγ: Interferon gamma | − | slight increase in NK-CMC | ^6Weakly activates NK cells in the presence of IL-2 (maximal response < 50% cytotoxicity). | relatively weak enhancers |  |  | 
IL-1β: interleukin (protein, UniProt P10749 118-269, looked up) Interleukin-1 beta: VPIRQLHYRLRDEQQKSLVLSDPYELKALHLNGQNINQQVIFSMSFVQGEPSNDKIPVALGLKGKNLYLSCVMKDGTPTLQLESVDPKQYPKKKMEKRFVFNKIEVKSKVEFESAEFPNWYISTSQAEHKPVFLGNNSGQDIIDFTMESVSS | − |  |  |  | −^3 |  | 
IL-2: Interleukin 2 (protein, UniProt P04351 21-169, looked up) Interleukin-2: APTSSSTSSSTAEAQQQQQQQQQQQQHLEQLLMDLQELLSRMENYRNLKLPRMLTFKFYLPKQATELKDLQCLEDELGPLRHVLDLTQSKSFQLEDAENFISNIRVTVVKLKGSDNTFECQFDDESATVVDFLRRWIAFCQSIISTSPQ | − |  |  |  |  | ^4IL-2 significantly increases NK-CMC only at high concentrations. | 10-15%
IL-10: interleukin (protein, UniProt P18893 19-178, looked up) Interleukin-10: SRGQYSREDNNCTHFPVGQSHMLLELRTAFSQVKTFFQTKDQLDNILLTDSLMQDFKGYLGCQALSEMIQFYLVEVMPQAEKHGPEIKEHLNSLGEKLKTLRMRLRRCHRFLPCENKSKAVEQVKSDFNKLQDQGVYKAMNEFDIFINCIEAYMMIKMKS | inhibitory |  |  |  | − |  | 
